Data published in article PMC11908827, “PpERF17 alleviates peach fruit postharvest chilling injury under elevated CO2 by activating jasmonic acid and γ-aminobutyric acid biosynthesis”.

T1: PpERF17 (Prunus persica (peach), cv. …, UniProt M5W9J0 1-215)
T1 sequence: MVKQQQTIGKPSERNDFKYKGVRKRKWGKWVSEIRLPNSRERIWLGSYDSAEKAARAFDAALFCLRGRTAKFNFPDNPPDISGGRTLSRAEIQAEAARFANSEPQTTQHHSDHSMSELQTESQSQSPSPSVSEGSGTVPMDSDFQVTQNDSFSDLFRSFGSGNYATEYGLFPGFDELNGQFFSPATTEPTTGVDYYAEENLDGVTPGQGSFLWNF


Tests used:
[1] = target: T1, PpERF17; assay: EMSA; Chemiluminescent EMSA Kit (Beyotime); buffer, salt, pH and temperature not stated; details: protein: recombinant, tags: GST (N-terminal, pGEX-4T-1), label: biotin
[2] = target: T1, PpERF17; assay: EMSA; cold probe 50x/500x competes; Chemiluminescent EMSA Kit (Beyotime); buffer, salt, pH and temperature not stated; details: protein: recombinant; tags: GST (N-terminal, pGEX-4T-1); label: biotin; blunt

Binder | binding result ([1]; blunt) | binding result [2] | further results
PpERF17-PpOPR3 mutant probe (dsDNA) DNA 1: TAGAAACCAAAACGATTTTTTTTTTAAATAAATCCGC DNA 2: GCGGATTTATTTAAAAAAAAAATCGTTTTGGTTTCTA | no binding |  | 
PpERF17-PpAOS mutant probe (dsDNA) DNA 1: ATGGTTCATGTACCCTTTTTTTTTCACACTCACCTTC DNA 2: GAAGGTGAGTGTGAAAAAAAAAGGGTACATGAACCAT | no binding |  | 
PpERF17-Pp13S-LOX probe (dsDNA) DNA 1: TCTTAAAAACGTGTGGACGGTGAGATCAACAGTACCC DNA 2: GGGTACTGTTGATCTCACCGTCCACACGTTTTTAAGA |  | binds | 
PpERF17-PpOPR3 probe (dsDNA) DNA 1: TAGAAACCAAAACGACACCGGCCATAAATAAATCCGC DNA 2: GCGGATTTATTTATGGCCGGTGTCGTTTTGGTTTCTA |  | binds | 
PpERF17-PpGAD mutant probe (dsDNA) DNA 1: CATAAAAAAAAAAGGTTTTTTTTTGTTCCAACTTGG DNA 2: CCAAGTTGGAACAAAAAAAAAACCTTTTTTTTTATG |  |  | binding result [1]: no binding
PpERF17-Pp13S-LOX mutant probe (dsDNA) DNA 1: TCTTAAAAACGTGAAAAAAAAAAGATCAACAGTACCC DNA 2: GGGTACTGTTGATCTTTTTTTTTTCACGTTTTTAAGA | no binding |  | 
PpERF17-PpAOS probe (dsDNA) DNA 1: ATGGTTCATGTACCCCACCGTCTTCACACTCACCTTC DNA 2: GAAGGTGAGTGTGAAGACGGTGGGGTACATGAACCAT |  | binds | 
PpERF17-PpGAD probe (dsDNA) DNA 1: CATAAGGTCGGAAGGCACCGTCCATGTTCCAACTTGG DNA 2: CCAAGTTGGAACATGGACGGTGCCTTCCGACCTTATG |  | binds | 
